Key:
PBR = PBR (Mus musculus, UniProt P50637); experiment: PK 11195 radioligand binding to PBR interacting with PAP20; settings: PK11195 as a ligand
Protocol: ^3H-1-(2-chlorophenyl)-N-methyl-N-(1-methyl-propyl)-3-isoquinolinecarboxamide (PK 11195) (NEN, Boston, Mass.) binding studies were performed as we previously described (Papadopoulos, V. et al., 1990, supra; Garnier, M. et al., 1994, Molecular Pharmacology 45, 201–211). The dissociation constant (Kd) and the number of binding sites (Bmax) were determined by Scatchard plot analysis of the data using the LIGAND program (Munson, P. J. and Rodbard, D., 1980, Anal. Biochem. 107, 220–239).

MA-10 cells = experiment: Steroid biosynthesis: hCG-stimulated progesterone production in transfected MA-10 cells; type: cell-based, mouse; settings: pSVzeoPAP7 vs pSVzeo empty vector transfectants, hCG 50 ng/ml, dose and time dependent
Protocol: MA-10 cells were grown in modified Waymouth's MB752/1 medium containing 15% horse serum, as described previously (Papadopoulos, V. et al., 1990, J. Biol. Chem. 265, 3772–3779). Mouse C6 glioma and mouse Y1 adrenal cortical cells were cultured in DMEM and DMEM F12 repectively, with 10% fetal bovine serum. MA10 cells were transiently transfected by electroporation (El Hefnawy, T. et al., 1996, Mol. Cell Endocrinol. 119, 207–217). Each Genepulser cuvette (0.4 cm-gap, BioRad, Hercules, Calif.) contained 8×10^6 cells in 350 μl antibiotic-free complete Waymouth's growth medium (see above), plus 30 μg plasmids DNA in 50 μl of 0.1×TE. Cells in electroporation cuvettes were electro-shocked at 330 V and at a capacitance of 950 μFd generated from Genepulser (BioRad, Hercules, Calif.). The cells were kept immediately on ice for 10 min before plated into 96 well plates.
MA-10 cells were plated into 96-well plate at the density of 2.5×10^4/well for overnight. The cells were stimulated with 50 ng/ml hCG in 0.2 ml/well serum-free medium for 2 hours. The culture medium was collected and tested for progesterone production by RIA. The assay was carried out by using anti-progesterone antisera (ICN, Costa Mesa, Calif.), following the conditions recommended by the manufacturer. […] Radioimmunoassay data was analyzed using the software provided by Wallac (EG&G Wallac, Gaithersburg, Md.). […]

[1] = molecular target: T1, GAL4 (1-147)-PBR fusion (plasmid pGBT9+PBR), mouse peripheral-type benzodiazepine receptor as two-hybrid bait (mouse, UniProt P04386 1-147; P50637 1-169); experiment: yeast two-hybrid, His3 reporter (histidine prototrophy), second-round transformation of HF7c carrying pGBT9-PBR
T1 construct: Bait of the yeast two-hybrid screen, expressed in yeast HF7c; also called pGBT-PBR; fusion PBR protein
Excerpt: The Clontech […] two-hybrid system was applied in this study (detailed in manufacturer's instruction book). Briefly, the yeast reporter host strain HF7c was simultaneously cotransformed with both pGBT-PBR and the mouse testis cDNA library in pGAD10 plasmid by using lithium acetate high-efficiency method (Gietz, D. et al., 1992, *Nucleic Acids Res.* 20, 1425). HIS positive clones were further selected by colony lift filter assay for β-galactosidase activity. Plasmid DNA was rescued in *Escherichia coli* DH5? from yeast cells. Plasmids were retransformed into yeast HF7c cells with plasmid pGBT-PBR to test for histidine prototrophy and β-galactosidase activity (Clontech manual). The cDNA inserts from the positive clones were sequenced. The full length PAP7 cDNA was obtained by using 5' and 3' RACE kit from kit (CLONTECH, Palo Alto, Calif.).
Library plasmids from these transformants were rescued in *E. coli* strain DH5α. Both the His+ phenotype and the expression of β-galactosidase were confirmed by a second-round transformation of strain HF7c carrying pGBT9-PBR (Table 1).

PBR, sequence (P50637 whole entry): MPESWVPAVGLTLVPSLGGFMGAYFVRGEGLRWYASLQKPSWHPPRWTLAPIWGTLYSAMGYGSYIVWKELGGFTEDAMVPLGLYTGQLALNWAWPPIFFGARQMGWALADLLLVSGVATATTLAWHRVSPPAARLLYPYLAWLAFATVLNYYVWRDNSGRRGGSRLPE

B1: PAP20: PBR associated protein, polypeptide of 196 amino acids, SEQ ID NO:10; predominantly expressed in testis (protein, listed as Mus musculus)
chain: NSRPRRPQKRKRGAEVLAAQIVQKTRLERKKQEASVSKDAPVPTNTKRAKKQEKSPGRIASQSKPPMKKSPQKRKVNVARGRRNTRKQLQPAEKEIALHLQSEISSDGQKDGLNLSTSQQESISMIPKGPPENSVISCDSQALNMLADLALSSAAASIPSCKPRNLPCVSDLPRNNVLLTKENPLLGASDHEYHKG
PBR
  affinity of ligand binding to PBR: increased the affinity of ligand binding

B2: PAP7: PBR associated protein 7, SEQ ID NO:7; in transfection a partial sequence including the PBR binding domain in pSVzeo (protein, listed as Mus musculus)
chain: RPRRPKVELFTVVTRVKVVLFLNQLSLCKLVKDGKAFHPTYEEKLKFVALHKQVLLGPYNPDTSPEVGFFDVLGNDRRREWAALGNMSKEDAMVEFVKLLNKCCPLLSAYVASHRIEKEEEEKRRKAEEERRQREEEERERLQKEEEKRKREEEDRLRREEEERRRIEEERLRLEQQKQQIMAALNSQTAVQFQQYAAQQYPGNYEQQQILIRQLQEQHYQQYKHQAEQTQPAQQQAALQKQQEVVMAGASLPASSKVNTAGASDTLSVNGQAKTHTENSEKVLEPEAAEEALENGPKDSLPVIAAPSMWTRPQIKDFKEKIRQDADSVITVRRGEVVTVRVPTHEEGSYLFWEFATDSYDIGFGVYFEWTDSPNAAVSVHVSESSDEEEEEEENVTCEEKAKKNANKPLLDEIVPVYRRDCHEEVYAGSHQYPGRGVYLLKFDNSYSLWRSKSVYYRVYYTR
MA-10 cells
  progesterone production in response to hormonal (hCG) stimulation: significantly reduced
MA-10 cells; listed as PAP7 fragment
  progesterone production in response to hormonal (hCG) stimulation: significantly inhibited

B3: PAP20 (PBR associated protein 20), two-hybrid clone in pGAD10 (other)
chain: ANFNQSGNIADSSLSFTFTNSSNGPNLITTQTNSQALSQPIASSNVHDNFMNNEITASKIDDGNNSKPLSPGWTDQTAYNAFGITTGMFNTTTMDDVYNYLFDDEDTPPNPKKENSRPRRPQKRKRGAEVLAAQIVQKTRLERKKQEASVSKDAPVPTNTKRAKKQEKSPGRIASQSKPPMKKSPQKRKVNVARGRRNTRKQLQPAEKEIALHLQSEISSDGQKDGLNLSTSQQESISMIPKGPPENSVISCDSQALNMLADLALSSAAASIPSCKPRNLPCVSDLPRNNVLLTKENPLLGASDHEYHKG
notes: range 768-881
[1]
  binding result: binds
